How the values were obtained:
Assay in all cases: IEDB peptide-MHC binding, purified MHC/competitive/radioactivity; ≥ and ≤ were set here for values at or beyond the usual limits of such assays
Settings in all cases: source organism: Bordetella pertussis
HLA-B*53:01 = molecular target: HLA-B*53:01
HLA-B*44:03 = molecular target: HLA-B*44:03
HLA-A*02:01 = molecular target: HLA-A*02:01
HLA-B*07:02 = molecular target: HLA-B*07:02
HLA-B*57:01 = molecular target: HLA-B*57:01

Sequence	IC50 (HLA-B*53:01)	IC50 (HLA-B*44:03)	other results
FDTMLGFAI	2.91 µM		
LSDAGHEHD	36.5 µM		
PGTPGDLLE	≥ 78.2 µM		
EVDGIIQEF		15.9 µM	
ILPILVLAL			IC50 (HLA-A*02:01): 0.0254 µM
PPRPVVAEK			IC50 (HLA-B*07:02): 69.6 µM
SSTPLGSLF			IC50 (HLA-B*57:01): ≥ 70.4 µM
YEDATFETY		3.73 µM	
NPQTQLSNI	23.6 µM		
PGTFTAGKD			IC50 (HLA-A*02:01): 62.5 µM
ANEANALLW		9.19 µM	
VEASAITTY		1.97 µM	
FTHADGWFL			IC50 (HLA-A*02:01): 14 µM
